Literature values in patent publication US12305200B2, “Methods and compositions for vault nanoparticle immobilization of therapeutic molecules and for vault targeting” (AUKERA, INC., priority 2017, dated 2025).

Target: GRP-R (Homo sapiens, UniProt P30550)
Conditions: Accardo et al., EJNMMI Research 2016

Sequence of GRP-R (P30550 whole entry): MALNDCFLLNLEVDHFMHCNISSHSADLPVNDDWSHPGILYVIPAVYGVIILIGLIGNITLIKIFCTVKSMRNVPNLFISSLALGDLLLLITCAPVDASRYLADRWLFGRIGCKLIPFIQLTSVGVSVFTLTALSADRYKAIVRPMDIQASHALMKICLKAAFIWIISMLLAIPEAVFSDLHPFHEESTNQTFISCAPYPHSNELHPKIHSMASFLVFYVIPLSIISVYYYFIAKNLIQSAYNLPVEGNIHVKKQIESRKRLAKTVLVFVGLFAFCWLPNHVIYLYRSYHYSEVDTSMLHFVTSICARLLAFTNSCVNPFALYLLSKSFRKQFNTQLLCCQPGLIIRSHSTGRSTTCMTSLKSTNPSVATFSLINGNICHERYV

Gin-Trp-Ala-Val-Gly-His-Leu-Met (SEQ ID NO.: 3)-NH2 [8-amino acid peptide of the ligand GRP]
affinity for the GRP-R: has been found to have affinity
